Results reported in patent publication US20230067757A1 (NOVAROCK BIOTHERAPEUTICS, published 2023).
Like-named read-outs stand apart in the source and are kept apart here.

B1: Hu-14 (antibody, V domains shown)
VH: EVQLLESGGGLVQPGGSLRLSCAASGITFSSYAMSWVRQVPGKGLEWVSVISGSGGSTYYADSVKGRFTISRDNSKNTLYLQMNSLRAEDTAVYYCAKDRGYDILTTYYDYFYGMDVWGQPEFQHTGG
VL: DIQMTQSPSSLSASVGDRVIITCRASQGIRNDLGWYQQKPGKAPKRLIYAASSLQSGVPSRFSGSGSGTEFTLTISSLQPEDLASYYCLQHNSYPYTFGQGTKLEIK
B2: Hu-16 (antibody, V domains shown)
VH: EVQLLESGGGVVQPGGSLRLSCAASGLIFSSYAMSWVRQAPGKGLEWVSVIGGSGSNTFYADSVKGRFTISRDNSKNTLFLQMNSLRAEDTAVYYCAKDRGYDILTGYYNYYYGMDVWGQGITVTVSS
VL: DIQMTQSPSSLSASVGDRVTITCRASQGIRNDLGWYQQKPGKAPKRLIYAASSLQSGVPSRFSGSGSGTEFTLTISSLQPEDFATYYCLQHNSYPYTFGQGTKLEIK
B3: Ms1 (antibody, V domains shown)
VH: EIQLQQSGPELVKPGASVKVSCKASGYAYTRYNMYWVKQSHGKSLEWIGYIDPYNGGTNYNQKFKGKATLTVDKSSSTAYMHLNSLTSEDSAVYYCARGGYYGNAMDYWGQGTSVTVSS
VL: DIVMTQSPSSLTVTAGEKVTMSCKSSQSLLNSGNQKNYLTWYQQKPGQPPKLLIYWASTRESGVPDRFTGSGSGTDFTLTISSVQAEDLSIYYCQSNYIYPFTFGAGTTLELQ
B4: Ms8 (antibody, V domains shown)
VH: EIQLQQSGPELVKPGASVKVSCKASDYAFTRYNMYWVKQSHGKSLEWIGYIDPYNGGTNYNQKFKGKATLTVDKSSSTAYMHLNSLTSEDSAVYYCARGGYYGNAMDYWGQGTSVTVSS
VL: DIVMTQSPSSLTVTAGEKVTMSCKSSQSLLNSGNQKNYLTWYQQKPGQPPQLLIYWASTRESGVPDRFTGSGSGTDFTLTISSVQAEDLSIYYCQSNYIYPFTFGAGTTLELQ
B5: Ms3 (antibody, V domains shown)
VH: EVMLVESGGGIVKPGGSLKLSCAASGFTLSSYTMSWVRQTPERRLEWVATIIIGGSYTYYPDSVKGRFTISRDNAKNTLYLQMSSLRSEDTAMYYCARQGYGNSFPYWGQGTLVTVSA
VL: DIVMTQSPSSLTVTAGEKVTMSCKSSQSLLNSGNQKNYLTWYQQKPGQPPKLLIYWASTRESGVPDRFTGSGSGTDFTLTISSVQAEDLAVYYCQNDYSYPFTFGSGTKLEIK
B6: Ms5 (antibody, V domains shown)
VH: QVQLQQPGAELVKPGASVKLSCKASGYTFTRYLMHWVKQRPGQGLEWIGEINPSNGRTNYNEKFKSKAALTVDKSSSTAYMQLSSLTSEDSAVYYCARLAYGYGNAVDYWGQGTSVTVSS
VL: DIVMTQSPSSLSVSAGEKVTMSCKSSQSLLNSGNQKNYLAWYQQKPGQPPKLLIYGASTRESGVPDRFTGSGSGTDFTLTISSVQAEDLAVYYCQNDHSYPLTFGAGTKLELK
B7: Ms6 (antibody, V domains shown)
VH: QVQLQQSGAELAKPGASVKMSCRASGYTFTSYLMHWIKQRPGQALEWIGYINPTTDYTEYNQKFKGKATLTADKSSSTAYMQLSSLTSEDSAVYYCGRLGYYKRNAMDHWGQGTSVTVSS
VL: DIVMTQSPSSLSVSAGEKVTMSCKSSQSLLNSGNQKNYLAWYQQKPGQPPKLLIYGASTRESGVPDRFTGSGSGTDFTLTISSVQAEDLAVYYCQNDHFYPLTFGAGTKLELK
B8: Ms7 (antibody, V domains shown)
VH: EVKLVESGGDLVQPGGSLRLSCTTPGFTFSDFYMEWVRQPPGKRLEWIAASRNKANDYTTENSASVKGRFIVSRDTSQSILYLQMNALRAEDTAIYYCARDACPWDWFAYWGQGTLVTVSA
VL: DIVMTQSPSSLTVTAGEKVTMSCKSSQSLLNSGNQKNYLTWYQQKPGQPPKLLIYWASTRESGVPDRFTGSGSGTDFTLTISSVQAEDLAVYYCQNDYSYPFTFGSGTKLEIK
B9: Ms10 (antibody, V domains shown)
VH: EVQLQQSGPELEKPGASVKISCKASGYSFTGYKMNWVKQSNGKSLEWIGHIDPYYGGPRYNKKFMGKATLTVDRSSSTAYMQLKSLTSEDSAVYYCARLDYGNSFAYWGQGTLVTVSA
VL: DIVMTQSPSSLSVSAGEKVTMSCKSSQSLLNSGNQKNYLAWYQQKPGQPPKLLIYGASTRESGVPDRFTGSGSGTDFTLTISSVQAEDLAVYYCQNDHSYPFTFGGGTKLEIK
B10: Ms12 (antibody, V domains shown)
VH: EIQLQQSGPELVKPGASVKVSCKASGYAFASYKMYWVKQSHGKSLEWIGYIDPYNGVTSYNQKFRGKATLTVDKSSSTAYMHLNSLTSEDSAVYYCARGAYYGNSFDYWGQGTTLTVSS
VL: DIVMTQSPSSLTVTAGEKVTMSCKSSQSLLNSGNQKNYLTWYQQQPGQPPKLLIYWASTRESGVPDRFTGSGSGTDFTLTISSVQAVDLAVYYCQSAYSFPYTFGGGTKLEVK
B11: Ms13 (antibody, V domains shown)
VH: EVQLQQSGPELVKPGASVKMSCKASGYTFTRYIMHWVKQKPGQGLEWIGYFNPYNDDSKTSEKFKGKATLTSDKSSSTAYMEINSLTSEDSAVYYCAKLRQERIAYWGQGTLVTVSA
VL: DIQMNQSPSSLSASLGDTITITCHASQNIDVWLSWYQQKPGNFPKLLIYKASNLHTGVPSRFSGSGSGTGFTLTISSLQPEDIATYYCQQGQSYPLTFGAGTKLELK
B12: Hu-5 (antibody, V domains shown)
VH: QVQLVQSGAEVKKPGASVKVSCEASGYTFTSSYMHWVRQAPGQGLEWMGIINPSGGRTNYAQKFQGRVTMTRDTSTSTVYMELSSLRSEDTAVYYCARDHYDIFTTYYPRGMDVWGQGTTVTVSS
VL: DIQMTQSPSSLSASVGDRVTITCRASQGIRNDLGWYQQKPGKAPKRLIYAASSLQSGVPSRFSGSGSGTEFTLTISSLQPEDFTTYYCLQHNSFPFTFGQGTELEIR
B13: NBL-014G (antibody, human IgG1, kappa, V domains shown)
VH: EVQLLESGGGLVQPGGSLRLSCAASGFTFSSFAMTWVRQAPGKGLEWVSSLSGSGRSTYYAASMKGRFTISRDNSKNTLYLQMNSLRAEDTAIYYCAKSLSYYHYYFDYWGQGTLVTVTS
VL: DIQLTQSPSFLSASVGDRVPITCRASQGISNFLAWYQQKPGKAPELLIHSASTLQSGVPSRFSGSGSGTEFTLTISNLQPQDFATYYCQQVNSYPLTFGGGTKVEIKR
modifications: low, or no IgG core fucose (non- or afucosylated)
B14: NBL-014 (antibody, human IgG1, kappa, V domains shown)
VH: EVQLLESGGGLVQPGGSLRLSCAASGFTFSSFAMTWVRQAPGKGLEWVSSLSGSGRSTYYAASMKGRFTISRDNSKNTLYLQMNSLRAEDTAIYYCAKSLSYYHYYFDYWGQGTLVTVTS
VL: DIQLTQSPSFLSASVGDRVPITCRASQGISNFLAWYQQKPGKAPELLIHSASTLQSGVPSRFSGSGSGTEFTLTISNLQPQDFATYYCQQVNSYPLTFGGGTKVEIKR

Key:
[1] = molecular target: human claudin 18 isoform 2 (claudin 18.2) (human); test: cell-based or functional assay
[2] = molecular target: human claudin 18 isoform 2 (claudin 18.2) (human); test: cell-based or functional assay; remark: listed apart in the source
[3] = molecular target: T1, human claudin 18 isoform 2 (claudin 18.2) (human); test: immunofluorescence imaging, CHO-CLDN18.2 cells, serial dilution
T1 construct: Recombinant on transfected CHO cells (CHO-CLDN18.2) or endogenous on tumor cell lines PATU8988S, NUGC-4, KATOIII; the cell line is named under assay; also called CLDN18.2
Procedure: (§1) The specific cellular binding affinity of anti-Claudin18.2 antibodies was tested on CHO-CLDN18.2 (transfected CHO cell expressing recombinant human CLDN18.2) and CHO-CLDN18.1 (transfected CHO cell expressing recombinant human CLDN18.1) cells. The cells were plated in complete media containing F12 with 10% FBS, then incubated overnight at 37° C., anti-Claudin18.2 antibodies were serial diluted and added to the assay plates, incubated at 4° C. for 2 hours, followed by fixing cells and further staining the cells for 30 minutes with Alexa Fluor® 488 Goat Anti-Human IgG (H+L) secondary antibody, invitrogen Cat #A-11013 for detection. The binding was assessed by imaging the cells and quantifying the fluorescence intensity using a Biotek Cytation.

[4] = molecular target: T2, human claudin 18 isoform 1 (claudin 18.1) (human, UniProt P56856 1-261); test: immunofluorescence imaging on CHO cells expressing human CLDN18.1, antibody at 10 µg/ml
T2 construct: Recombinant on transfected CHO cells (CHO-CLDN18.1); also called CLDN18.1
Procedure: as §1

[5] = molecular target: T1, human claudin 18 isoform 2 (claudin …); test: imaging, PATU8988S cells (endogenous CLDN18.2); +++ = EC50 between 2 nM and 20 nM
[6] = molecular target: T1, human claudin 18 isoform 2 (claudin …); test: cell-based or functional assay; remark: listed apart in the source
[7] = molecular target: T2, human claudin 18 isoform 1 (claudin …); test: imaging, CHO-CLDN18.1 cells, single concentration (FIG. 3A)
Procedure: as §1

[8] = molecular target: T1, human claudin 18 isoform 2 (claudin …); test: cell-based or functional assay; remark: listed apart in the source

T2 sequence (P56856 whole entry, canonical isoform): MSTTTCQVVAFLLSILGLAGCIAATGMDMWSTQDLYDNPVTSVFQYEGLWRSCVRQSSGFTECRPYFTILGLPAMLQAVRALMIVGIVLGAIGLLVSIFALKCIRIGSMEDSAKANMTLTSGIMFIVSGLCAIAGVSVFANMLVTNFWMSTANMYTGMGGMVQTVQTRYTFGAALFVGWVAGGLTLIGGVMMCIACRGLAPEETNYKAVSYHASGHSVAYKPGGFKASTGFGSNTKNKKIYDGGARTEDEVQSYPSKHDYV

Binder | EC50 [3] | binding result [4] | EC50 [5] | endocytosis derived cell toxicity EC50, CHO-18.2 cells (anti-IgG Fc-MMAF co-internalization) [6] | also measured
B1 | 19 nM |  |  |  | endocytosis derived cell toxicity EC50, CHO-18.2 cells (anti-IgG Fc-MMAF co-internalization) [1]: 1.51 nM; ADCC EC50, CHO-18.2 target cells (mouse FcγRIV reporter bioluminescence) [2]: 1.51 nM
B2 | 12 nM | no binding (tested: 10 µg/ml) |  |  | endocytosis derived cell toxicity EC50, CHO-18.2 cells (anti-IgG Fc-MMAF co-internalization) [1]: 3.09 nM; ADCC EC50, CHO-18.2 target cells (mouse FcγRIV reporter bioluminescence) [2]: 3.09 nM
B3 | 1.2 nM | no binding (tested: 10 µg/ml) | 2 to 20 nM | 1.09 nM | 
B4 | 1.5 nM | no binding (tested: 10 µg/ml) | 2 to 20 nM | 1.08 nM | 
B5 | 1.8 nM | no binding (tested: 10 µg/ml) | 2 to 20 nM | 1.14 nM | 
B6 | 1.7 nM | no binding (tested: 10 µg/ml) | 2 to 20 nM | 1.43 nM | 
B7 | 1.2 nM | no binding (tested: 10 µg/ml) | 2 to 20 nM | 1.26 nM | 
B8 | 1.4 nM | no binding (tested: 10 µg/ml) | 2 to 20 nM | 1.12 nM | 
B9 | 1.3 nM | no binding (tested: 10 µg/ml) | 2 to 20 nM | 0.96 nM | 
B10 | 2 nM | no binding (tested: 10 µg/ml) | 2 to 20 nM | 1.07 nM | 
B11 | 1.2 nM |  | 2 to 20 nM | 0.71 nM | binding result [7]: no binding (tested: 10 µg/ml)
B12 | 4.5 nM | no binding (tested: 10 µg/ml) |  |  | endocytosis derived cell toxicity EC50, CHO-18.2 cells (anti-IgG Fc-MMAF co-internalization) [1]: 13.4 nM; ADCC EC50, CHO-18.2 target cells (mouse FcγRIV reporter bioluminescence) [2]: 7.09 nM
B13 |  |  |  |  | ADCC EC50, CHO-claudin18.2 cells (human FcγRIIIa reporter bioluminescence) [8]: 0.02 nM; ADCC EC50, NUGC-4 cells (human FcγRIIIa reporter bioluminescence) [8]: 0.06 nM; ADCC EC50, PATU8988S cells (human FcγRIIIa reporter bioluminescence) [8]: 0.04 nM; CDC EC50, CHO-claudin18.2 cells (human serum, flow cytometry) [8]: 0.3 nM; fold improvement of ADCC EC50 over parental NBL-014, CHO-claudin18.2 cells (human FcγRIIIa reporter bioluminescence) [8]: 35 fold; fold upshift of maximum ADCC effect over parental NBL-014, NUGC-4 cells (human FcγRIIIa reporter bioluminescence) [8]: ~3 fold; fold upshift of maximum ADCC effect over parental NBL-014, PATU8988S cells (human FcγRIIIa reporter bioluminescence) [8]: ~33 fold
B14 |  |  |  |  | ADCC EC50, CHO-claudin18.2 cells (human FcγRIIIa reporter bioluminescence) [8]: 0.73 nM; ADCC EC50, NUGC-4 cells (human FcγRIIIa reporter bioluminescence) [8]: 0.4 nM; ADCC EC50, PATU8988S cells (human FcγRIIIa reporter bioluminescence) [8]: 0.12 nM; CDC EC50, CHO-claudin18.2 cells (human serum, flow cytometry) [8]: 0.22 nM; fold improvement of CDC EC50 over PC1 (in-house iMAb36), CHO-claudin18.2 cells (human serum, flow cytometry) [8]: ~10 fold
